Test results as given in patent US20090148905A1 (published 2009).

T1: human IL-4 (human, UniProt P05112 25-153)
T1 construct: E. coli-expressed, made and purified at GSK; also called rhIL-4; recombinant E. coli-expressed human IL-4
T1 sequence: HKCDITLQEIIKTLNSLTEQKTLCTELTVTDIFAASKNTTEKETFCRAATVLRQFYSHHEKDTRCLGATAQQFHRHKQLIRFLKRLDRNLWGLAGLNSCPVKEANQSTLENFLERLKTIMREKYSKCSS


Columns and labels:
human IL-4 = target: T1, human IL-4; assay: Biacore
human IL-13 = target: T2, human IL-13 (human, UniProt P35225 35-146)
T2 construct: E. coli-expressed, made and purified at GSK; also called rhIL-13; recombinant E. coli-expressed human IL-13

| fold less potent than Pascolizumab (human IL-4) | Kd (human IL-13) | Binder |
| --- | --- | --- |
| ~2 fold |  | PascoL-EPKSC-474 (bispecific antibody, human IgG1, kappa) heavy: not shown light: DIVLTQSPSSLSASVGDRVTITCKASQSVDYDGDSYMNWYQQKPGKAPKLLIYAASNLESGIPSRFSGSGSGTDFTFTISSLQPEDIATYYCQQSNEDPPTFGQGTKVEIKRTVAAPSVFIFPPSDEQLKSGTASVVCLLNNFYPREAKVQWKVDNALQSGNSQESVTEQDSKDSTYSLSSTLTLSKADYEKHKVYACEVTHQGLSSPVTKSFNRGECEPKSCDKTHTCPPCPGSGVQLLESGGGLVQPGGSLRLSCAASGFTFAWYDMGWVRQAPGKGLEWVSSIDWHGEVTYYADSVKGRFTISRDNSKNTLYLQMNSLRAEDTAVYYCATAEDEPGYDYWGQGTLVTVSS |
|  | 300 pM | Anti-human IL-13 monoclonal antibody (also known as 586) (antibody, human IgG1, kappa, humanised, human IgG1/kappa; also called Anti-human IL-13 mAb; anti-IL13 mAb) heavy: not shown light: DIVMTQSPLSLPVTPGEPASISCRSSQNIVHINGNTYLEWYLQKPGQSPRLLIYKISDRFSGVPDRFSGSGSGTDFTLKISRVEADDVGIYYCFQGSHVPWTFGQGTKLEIKRTVAAPSVFIFPPSDEQLKSGTASVVCLLNNFYPREAKVQWKVDNALQSGNSQESVTEQDSKDSTYSLSSTLTLSKADYEKHKVYACEVTHQGLSSPVTKSFNRGEC |
